Results published in a protein production outcome set (Wang et al. 2014).

Test: label from the status in PepcDB records

Sequence | protein production
MQNSIYKQFWKYTIPTVAAMLVNGLYQVVDGIFIGRYVGADGLAGINVAWPVIGSILGIGMMVGVGTGALTSIKQGEQDQQGAKRVLTTGLLFLLALMPIVATILFFFADDFIRWQGAQERVYELGLQYLQILIVACIFSLGSIAVPFLLRNDNSPNLATILMVIGAIINIVLDYVFIAWMNWELTGAAIATALAQMVVTVLGVGYFFSSKAKLRLTFRELKVQLDAIPKIVLIGTSSFFMYAYGSTMVALHNALFAQYGSPLLIGAYAILGYIVTVYYLVAEGIANGMQPLVSYNHGARNQDNIRKLLQIAMGTSVLGGVVFVVLMNLFPYQLVSVFNDADQQLIESAVMGIRLHMFALFMDGFLVVAGAYYQSVNKGSKAMFVTVGNMLIQLPFLFIMPKLLGVTGIWIAFPLSNIALSLVVMSMLWRDIKKLMVDSPVEPSIQAS | not failed
MGVSFKISKVGRKFRPKISTELATPDSPKAIVLSGKPKATDDSNIGDVSGFSKPSLPDISPDHEVSFILSLYPNGYSIGKTSEAMQQISFRDVPKVLHPYDRAAEGLLSAIEAGRLPGDILEDIPCKFVDGVVICEVHDYRKHTSSQVSPVINKLRLKMSLENVVKDIPSMSDNSWTYGDLMVIMVARGL | failed
MITRSEIFEYAEKTFGAKPDYPFKTYPHYAILRHLDDQKWFGLVMNVPKDKLGLEGEGDVDVIDIKCHPDKVHDLKIKAGFLPAYHMNKEHWLTAVLDGSVTKEEVFSLLAESYELTK | failed
HLGIPPSGALDQYALRAANLLVGNAPTAAVLECALLGPQLEFQRDALVAVCGARMTPRLEGAEMPLDTSFRVRAGQVLGFDFIRAGARGYLAIDGGIAVPEVLGSRSTYGLGAIGGLQGRRLAEGDLLPLGPASPSAVEGLALPRSLQVEVGGEVSLRVVPGLYVHRLTPDAVERFFAETWTVGSEADRTGYRFKGGTALRFEPREQPFGAGSDPSNIVDACYPIGSIQVPGGLEPIVLHRDAVSGGGYATLGTVISPDLNRLAQMQPNQKGRFVAVSLEEGLEARRRYNWQ | failed
MALTEAWLIEKANRKLNAGGMYKITSDKTRNVIKKMAKEGIYLCVAQGYRSTAEQNALYAQGRTKPGAIVTNAKGGQSNHNYGVAVDLCLYTNDGKDVIWESTTSRWKKVVAAMKAEGFKWGGDWKSFKDYPHFELCDAVSGEKIPAATQNTNTNSNRYEGKVIDSAPLLPKMDFKSSPFRMYKVGTEFLVYDHNQYWYKTYINDKLYYMYKSFCDVVAKKDAKGRIKVRIKSAKDLRIPVWNNTKLNSGKIKWYAPNTKLAWYNNGKGYLELWYPSDGWYYTANYFLK | failed
YQEPKGELVISAPTMFGRQHVLPVISEFIARYPLIRVRLLLSDRNADLVSDHVDLAVRIGDLADSSMVATRLGTMRIVACAHPALLAKYGEPQRPRDLAALPIIRIESPMPYRGWRFRAAEREDQLINLPPVLSVTTPESA | failed
MSGDEAVAAPVVPPVAEAAVIPEDMDVSTALELTVRKSRAYGGVVRGLHESAKLIEKRNAQLCVLAEDCNQPDYVKLVKALCADHSIKLLTVPSAKTLGEWAGLCKIDSEGNARKVVGCSCLVIKDFGEETTALNIVKKHLDSN | failed
MATITVVKARQIFDSRGNPTVEVDIHTSNGIKVTAAVPSGASTGIYEALELRDGGSDYLGKGVSKAVGNVNNIIGPALIGKDPTQQTAIDNFMVHELDGTQNEWGWCKQKLGANAILAVSLAVCKAGAVVSGIPLYKHIANLAGNPKIVLPVPAFNVINGGSHAGNKLAMQEFMILPVGAASFKEAMKMGVEVYHHLKSVIKKKYGQDATNVGDEGGFAPNIQENKEGLELLKTAIEKAGYTGKVVIGMDVAASEFYSEDKTYDLNFKEENNNGSQKISGDALKDLYKSFVAEYPIVSIEDPFDQDDWEHYAKMTTECGTEVQIVGDDLLVTNPKRVAKAIAEKSCNALLLKVNQIGSVTESIEAVKMSKKAGWGVMTSHRSGETEDTFIADLAVGLSTGQIKTGAPCRSERLAKYNQLLRIEEELGSEAIYAGVNFRKPVEPY | failed
MYDCSHGAGSSQSPAAEPGPTPRRRHTIHRLAHNDPVNDLDFLLTPEGRALLDEVRDTDPVRELAVATRLRRTHPAELVSAALGQARLRQRAVAKFGAEDAGRMFFTPNGVEQSTRASVAAYRAGRFAALGVASVADLCCGIGGDAIALARAGIRVLAVDRDPVTAAAARANADALGLAGLIEVREADVTEVDTEAYDAVFVDPARRGGRGRIFDPEAYSPPLSWAVRAARTASRAAALKVAPGIPHEAVPEDAEAEWISDGGDVKEAVLWFGAGAAPGAVRATLLPGPRTLPGTGLPDPEVRTPGRYLYEPDGAVIRAHLVAEVAAQVGGGLLDATIAYVTADELLPTPYATAYEITDRMPFNVKKLKALLRERGVGTLTVKKRGSAVEPEELRRKVKPQGPNSATVFLTRVAGAPTMLVGHPAR | failed
